We go through two proteins from publication PMC11997214.

The data set in a line: Flag IP, Ub blots after NMS-873 or CB-5083. The settings on record: glycan lost; control: wild type.

B1: B7H3 (4IgB7H3, CD276): N91/104/309/322Q (protein)
parent chain: MLRRRGSPGMGVHVGAALGALWFCLTGALEVQVPEDPVVALVGTDATLCCSFSPEPGFSLAQLNLIWQLTDTKQLVHSFAEGQDQGSAYANRTALFPDLLAQGNASLRLQRVRVADEGSFTCFVSIRDFGSAAVSLQVAAPYSKPSMTLEPNKDLRPGDTVTITCSSYQGYPEAEVFWQDGQGVPLTGNVTTSQMANEQGLFDVHSILRVVLGANGTYSCLVRNPVLQQDAHSSVTITPQRSPTGAVEVQVPEDPVVALVGTDATLRCSFSPEPGFSLAQLNLIWQLTDTKQLVHSFTEGRDQGSAYANRTALFPDLLAQGNASLRLQRVRVADEGSFTCFVSIRDFGSAAVSLQVAAPYSKPSMTLEPNKDLRPGDTVTITCSSYRGYPEAEVFWQDGQGVPLTGNVTTSQMANEQGLFDVHSVLRVVLGANGTYSCLVRNPVLQQDAHGSVTITGQPMTFPPEALWVTVGLSVCLIALLVALAFVCWRKIKQSCEEENAGAEDQDGEGEGSKTALQPLKHSDSKEDDGQEIA
B1: the “other: total and K48-linked ubiquitination” value is reported as “increases”.

B2: B7H3 (4IgB7H3, CD276): 8NQ (protein)
parent chain: B1 parent chain
Take B2: the “other: total and K48-linked ubiquitination” value is given as “increases”.
